Data taken from patent US10227387 (CHILDREN S HOSPITAL MEDICAL CENTER, dated 2019).

Target: LRP1 (full-length cDNA of LRP-1, Accession #NM_002332.2) overexpressed on cells (human, UniProt Q07954 20-4544)
Experiment: cell-based or functional assay

Sequence of LRP1 (full-length cDNA of LRP-1, Accession #NM_002332.2) overexpressed on cells (Q07954 20-4544): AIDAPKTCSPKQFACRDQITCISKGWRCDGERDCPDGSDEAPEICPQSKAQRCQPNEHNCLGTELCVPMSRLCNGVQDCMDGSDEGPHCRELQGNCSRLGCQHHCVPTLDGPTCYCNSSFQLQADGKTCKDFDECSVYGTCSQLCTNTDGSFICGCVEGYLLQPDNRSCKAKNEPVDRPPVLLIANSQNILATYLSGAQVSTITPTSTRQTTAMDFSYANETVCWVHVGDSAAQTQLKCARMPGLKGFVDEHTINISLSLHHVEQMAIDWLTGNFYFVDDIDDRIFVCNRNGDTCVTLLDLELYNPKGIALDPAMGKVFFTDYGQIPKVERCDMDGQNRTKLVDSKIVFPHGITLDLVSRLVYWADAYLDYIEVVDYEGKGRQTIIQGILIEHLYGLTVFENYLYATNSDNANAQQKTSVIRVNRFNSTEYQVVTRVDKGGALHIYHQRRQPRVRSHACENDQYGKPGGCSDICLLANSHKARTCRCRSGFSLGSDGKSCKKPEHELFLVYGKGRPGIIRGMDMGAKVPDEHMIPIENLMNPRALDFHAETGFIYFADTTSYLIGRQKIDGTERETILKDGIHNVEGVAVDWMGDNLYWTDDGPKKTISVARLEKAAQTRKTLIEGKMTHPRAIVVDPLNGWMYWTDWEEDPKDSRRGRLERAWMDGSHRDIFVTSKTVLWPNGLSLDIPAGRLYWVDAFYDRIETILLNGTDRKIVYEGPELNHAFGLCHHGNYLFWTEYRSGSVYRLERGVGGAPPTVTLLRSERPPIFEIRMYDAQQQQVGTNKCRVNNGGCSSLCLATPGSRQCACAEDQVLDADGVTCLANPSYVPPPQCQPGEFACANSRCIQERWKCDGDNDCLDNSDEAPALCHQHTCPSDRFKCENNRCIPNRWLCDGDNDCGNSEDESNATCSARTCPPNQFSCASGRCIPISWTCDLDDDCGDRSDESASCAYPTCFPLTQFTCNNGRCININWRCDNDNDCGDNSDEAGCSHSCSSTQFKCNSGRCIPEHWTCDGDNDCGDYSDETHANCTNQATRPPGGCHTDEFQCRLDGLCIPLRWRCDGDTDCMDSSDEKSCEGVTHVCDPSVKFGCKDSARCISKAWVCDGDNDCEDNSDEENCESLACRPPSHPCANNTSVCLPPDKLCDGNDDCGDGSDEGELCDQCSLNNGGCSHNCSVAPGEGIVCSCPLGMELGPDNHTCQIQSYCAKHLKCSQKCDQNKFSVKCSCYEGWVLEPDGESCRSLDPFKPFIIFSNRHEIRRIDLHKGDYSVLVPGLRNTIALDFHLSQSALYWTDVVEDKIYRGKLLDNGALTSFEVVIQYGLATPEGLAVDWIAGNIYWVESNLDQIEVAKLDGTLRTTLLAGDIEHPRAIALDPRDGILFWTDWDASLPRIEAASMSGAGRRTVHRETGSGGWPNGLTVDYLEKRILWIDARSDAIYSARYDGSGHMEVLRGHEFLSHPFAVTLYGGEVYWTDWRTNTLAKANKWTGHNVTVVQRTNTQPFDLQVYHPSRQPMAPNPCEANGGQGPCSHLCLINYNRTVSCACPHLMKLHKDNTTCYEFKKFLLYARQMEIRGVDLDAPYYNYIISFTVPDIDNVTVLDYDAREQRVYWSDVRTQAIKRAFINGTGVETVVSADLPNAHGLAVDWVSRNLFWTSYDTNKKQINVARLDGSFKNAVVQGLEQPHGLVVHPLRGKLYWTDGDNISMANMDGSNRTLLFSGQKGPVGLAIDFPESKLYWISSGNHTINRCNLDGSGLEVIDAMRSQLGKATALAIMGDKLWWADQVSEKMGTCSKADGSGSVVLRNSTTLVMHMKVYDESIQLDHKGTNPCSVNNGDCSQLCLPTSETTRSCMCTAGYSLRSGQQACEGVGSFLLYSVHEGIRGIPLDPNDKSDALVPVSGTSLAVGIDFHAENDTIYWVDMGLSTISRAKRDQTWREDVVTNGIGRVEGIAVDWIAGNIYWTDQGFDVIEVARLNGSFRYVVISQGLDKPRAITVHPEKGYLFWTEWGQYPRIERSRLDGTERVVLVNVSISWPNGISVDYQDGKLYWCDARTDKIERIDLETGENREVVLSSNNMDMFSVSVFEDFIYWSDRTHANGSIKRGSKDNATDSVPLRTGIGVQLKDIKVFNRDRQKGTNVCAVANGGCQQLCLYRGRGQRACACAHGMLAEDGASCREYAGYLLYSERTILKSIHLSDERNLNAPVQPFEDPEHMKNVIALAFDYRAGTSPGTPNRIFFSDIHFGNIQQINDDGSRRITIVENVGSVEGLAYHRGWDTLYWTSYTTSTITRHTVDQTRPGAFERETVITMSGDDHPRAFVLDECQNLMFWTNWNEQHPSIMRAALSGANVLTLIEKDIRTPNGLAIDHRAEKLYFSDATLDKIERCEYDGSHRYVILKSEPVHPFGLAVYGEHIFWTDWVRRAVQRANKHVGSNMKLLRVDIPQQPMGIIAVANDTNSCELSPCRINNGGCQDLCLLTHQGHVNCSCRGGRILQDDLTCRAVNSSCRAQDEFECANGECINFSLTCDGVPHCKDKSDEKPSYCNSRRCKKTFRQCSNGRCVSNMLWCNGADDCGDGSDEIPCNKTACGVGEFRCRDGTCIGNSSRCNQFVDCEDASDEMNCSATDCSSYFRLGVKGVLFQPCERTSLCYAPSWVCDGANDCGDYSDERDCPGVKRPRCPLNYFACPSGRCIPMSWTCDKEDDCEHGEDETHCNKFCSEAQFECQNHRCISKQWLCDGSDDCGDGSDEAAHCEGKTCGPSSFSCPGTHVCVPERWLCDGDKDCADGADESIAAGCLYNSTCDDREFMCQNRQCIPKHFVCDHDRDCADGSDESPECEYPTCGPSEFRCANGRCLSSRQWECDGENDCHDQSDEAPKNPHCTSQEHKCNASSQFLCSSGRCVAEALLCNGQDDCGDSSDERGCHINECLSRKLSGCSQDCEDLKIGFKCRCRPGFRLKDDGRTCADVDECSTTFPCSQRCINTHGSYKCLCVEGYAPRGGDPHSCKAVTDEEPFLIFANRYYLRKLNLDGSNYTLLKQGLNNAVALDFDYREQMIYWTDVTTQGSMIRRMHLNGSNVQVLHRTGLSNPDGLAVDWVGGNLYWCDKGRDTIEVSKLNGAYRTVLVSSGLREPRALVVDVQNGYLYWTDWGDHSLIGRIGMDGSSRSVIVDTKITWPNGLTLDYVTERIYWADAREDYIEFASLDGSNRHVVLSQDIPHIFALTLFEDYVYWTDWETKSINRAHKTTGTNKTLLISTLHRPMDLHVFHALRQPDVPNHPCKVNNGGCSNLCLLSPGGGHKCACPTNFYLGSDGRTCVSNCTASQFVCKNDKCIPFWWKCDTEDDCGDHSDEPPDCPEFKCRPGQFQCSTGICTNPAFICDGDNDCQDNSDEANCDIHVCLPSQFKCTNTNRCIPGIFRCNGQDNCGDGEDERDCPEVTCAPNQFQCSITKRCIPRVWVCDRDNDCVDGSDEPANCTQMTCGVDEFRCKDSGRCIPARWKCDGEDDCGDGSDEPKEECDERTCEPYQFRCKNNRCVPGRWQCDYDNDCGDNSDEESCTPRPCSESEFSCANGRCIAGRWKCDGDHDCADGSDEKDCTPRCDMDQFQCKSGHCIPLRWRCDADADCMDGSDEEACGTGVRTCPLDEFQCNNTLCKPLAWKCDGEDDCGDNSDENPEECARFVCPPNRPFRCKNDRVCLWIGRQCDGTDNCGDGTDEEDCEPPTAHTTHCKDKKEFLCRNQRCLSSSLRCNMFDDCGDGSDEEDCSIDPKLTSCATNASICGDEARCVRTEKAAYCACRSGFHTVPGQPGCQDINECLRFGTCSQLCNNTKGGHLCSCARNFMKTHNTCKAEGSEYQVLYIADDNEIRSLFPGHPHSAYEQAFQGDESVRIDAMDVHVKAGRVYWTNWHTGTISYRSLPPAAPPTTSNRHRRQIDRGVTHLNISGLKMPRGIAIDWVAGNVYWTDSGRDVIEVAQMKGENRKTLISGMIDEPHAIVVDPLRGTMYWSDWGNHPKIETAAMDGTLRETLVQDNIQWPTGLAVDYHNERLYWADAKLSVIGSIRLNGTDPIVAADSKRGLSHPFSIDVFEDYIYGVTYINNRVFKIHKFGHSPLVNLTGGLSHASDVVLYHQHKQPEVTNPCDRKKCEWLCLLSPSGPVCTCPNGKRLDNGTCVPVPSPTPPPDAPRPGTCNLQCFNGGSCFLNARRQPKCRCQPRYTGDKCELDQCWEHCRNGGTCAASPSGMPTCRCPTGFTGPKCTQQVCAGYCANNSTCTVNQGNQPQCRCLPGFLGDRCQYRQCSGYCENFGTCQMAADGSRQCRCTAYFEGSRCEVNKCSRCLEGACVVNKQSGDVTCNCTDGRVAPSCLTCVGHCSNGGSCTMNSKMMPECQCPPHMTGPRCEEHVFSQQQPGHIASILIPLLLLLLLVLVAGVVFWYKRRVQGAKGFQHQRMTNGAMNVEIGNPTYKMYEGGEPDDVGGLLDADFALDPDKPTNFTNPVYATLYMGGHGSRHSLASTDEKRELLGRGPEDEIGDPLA

B1: IDUAe1 (enzyme)
chain: APHLVHVDAARALWPLRRFWRSTGFCPPLPHSQADQYVLSWDQQLNLAYVGAVPHRGIKQVRTHWLLELVTTRGSTGRGLSYNFTHLDGYLDLLRENQLLPGFELMGSASGHFTDFEDKQQVFEWKDLVSSLARRYIGRYGLAHVSKWNFETWNEPDHHDFDNVSMTMQGFLNYYDACSEGLRAASPALRLGGPGDSFHTPPRSPLSWGLLRHCHDGTNFFTGEAGVRLDYISLHRKGARSSISILEQEKVVAQQIRQLFPKFADTPIYNDEADPLVGWSLPQPWRADVTYAAMVVKVIAQHQNLLLANTTSAFPYALLSNDNAFLSYHPHPFAQRTLTARFQVNNTRPPHVQLLRKPVLTAMGLLALLDEEQLWAEVSQAGTVLDSNHTVGVLASAHRPQGPADAWRAAVLIYASDDTRAHPNRSVAVTLRLRGVPPGPGLVYVTRYLDNGLCSPDGEWRRLGRPVFPTAEQFRRMRAAEDPVAAAPRPLPAGGRLTLRPALRLPSLLLVHVCARPEKPPGQVTRLRALPLTQGQLVLVWSDEHVGSKCLWTYEIQFSQDGKAYTPVSRKPSTFNLFVFSPDTGAVSGSYRVRALDYWARPGPFSDPVPYLEVPVPRGPPSPGNPILKKATAYILLRKLRKRLLLRKLRKRLL
intracellular enzyme level in pause-chase uptake assay, CHO^LDLRneg-LRP1 cells, against unmodified IDUA: 2 fold
